From FireProtDB (doi:10.1371/journal.ppat.1004158) come the findings set out here.

B1: Heterokaryon incompatibility protein s, Q03689 (parent)
chain: MSEPFGIVAGALNVAGLFNNCVDCFEYVQLGRPFGRDYERCQLRLDIAKARLSRWGEAVKINDDPRFHSDAPTDKSVQLAKSIVEEILLLFESAQKTSKRYELVADQQDLVVFEDKDMKPIGRALHRRLNDLVSRRQKQTSLAKKTAWALYDGKSLEKIVDQVARFVDELEKAFPIEAVCHKLAEIEIEEVEDEASLTILKDAAGGIDAAMSDAAAQKIDAIVGRNSAKDIRTEERARVQLGNVVTAAALHGGIRISDQTTNSVETVVGKGESRVLIGNEYGGKGFWDN

Variants of B1 are the subject of this data set. The following applies: Podospora anserina; pH 7.5; 25 °C; GdnHCl; optical density; structure 2KJ3; whole UniProt chain shown.

As for V267A, the “ddG of mutation (higher = less stable)” value was -0.2 kcal/mol and the unfolding free energy was determined as 2.9 kcal/mol.

On to E272A, for which the “ddG of mutation (higher = less stable)” value is -1.9 kcal/mol and the unfolding free energy was 4.8 kcal/mol.

For G278A, the “ddG of mutation (higher = less stable)” value stood at 0.8 kcal/mol and the unfolding free energy was 2.5 kcal/mol.

In the case of K229A, the “ddG of mutation (higher = less stable)” value was -1.5 kcal/mol and the unfolding free energy was 4.4 kcal/mol.

Consider V264A, for which the “ddG of mutation (higher = less stable)” value was -1 kcal/mol and the unfolding free energy was determined as 4 kcal/mol.

For the variant L241A, the “ddG of mutation (higher = less stable)” value is -1 kcal/mol and the unfolding free energy was determined as 3.9 kcal/mol.

As for V239A, the “ddG of mutation (higher = less stable)” value was -1 kcal/mol and the unfolding free energy was found to be 3.9 kcal/mol.

With S273A, the “ddG of mutation (higher = less stable)” value was -1.4 kcal/mol and the unfolding free energy came to 4.3 kcal/mol.

For D288A, the “ddG of mutation (higher = less stable)” value is -1.2 kcal/mol and the unfolding free energy amounted to 4.1 kcal/mol.
